Consider four molecules from publication PMC5748111.

This test has as its target CaMKII (human CaMKIIδ, form used for the solution kinetics not stated) (human) (UniProt Q13557).
UniProt Q13557, sequence (Q13557 1-478, stated change not applied): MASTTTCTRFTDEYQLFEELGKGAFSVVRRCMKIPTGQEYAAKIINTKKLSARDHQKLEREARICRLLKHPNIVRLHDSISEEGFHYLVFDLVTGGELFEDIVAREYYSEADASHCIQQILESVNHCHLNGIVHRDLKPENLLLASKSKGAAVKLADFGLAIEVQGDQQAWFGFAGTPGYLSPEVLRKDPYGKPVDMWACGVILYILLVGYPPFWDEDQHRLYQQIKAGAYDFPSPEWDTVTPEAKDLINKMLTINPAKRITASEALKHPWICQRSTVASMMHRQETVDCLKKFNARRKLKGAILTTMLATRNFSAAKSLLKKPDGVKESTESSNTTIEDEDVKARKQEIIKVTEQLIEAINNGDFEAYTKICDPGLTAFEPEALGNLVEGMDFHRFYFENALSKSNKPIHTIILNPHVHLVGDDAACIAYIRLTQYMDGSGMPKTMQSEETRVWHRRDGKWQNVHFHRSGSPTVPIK

GFCLIPQQSINEAIR [GluA1_(S849) peptide]: the Km of peptide phosphorylation, standard solution kinetics was above 1000 µM.

For the molecule PGVRLLQDSVDFSLA [VimentinS83 peptide], the Km of peptide phosphorylation, standard solution kinetics was above 1000 µM.

For RNKLRRQHSYDTFVD [GluN2B_(S1303) peptide], the Km of peptide phosphorylation, standard solution kinetics was found to be 4.6 µM.

For PLARTLSVAGLPGKK [Syntide peptide], the Km of peptide phosphorylation, standard solution kinetics amounted to 43.5 µM.
